{"source": "the supplement of paper PMC12042874", "note": "± gives the uncertainty stated by the source."}
{"test": "amyloid nucleation score (Sup35N fusion, yeast selection) (log enrichment); library NNK3; higher = more nucleation; inactive = no reads after selection", "method_in_brief": "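Peptides of 20 random codons fused to Sup35N were expressed in psi-negative yeast, induced 24 hours with 100 μM copper sulfate, then grown 7 days at 30°C on medium lacking adenine and uracil. Input and output plasmid inserts were Illumina-sequenced. Nucleation score is the DiMSum log enrichment of output over input reads, centred on the mode score of non-aggregating sequences, excluding sequences with under 100 input reads. Random libraries had three technical output replicates.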"}
{"substance": "VVGQKTIVGTLIHFSFKVLA", "amyloid nucleation score": "1.26 ± 0.14"}
{"substance": "VVHSGWKSLDNLPHLRDVVT", "amyloid nucleation score": "inactive"}
{"substance": "VVILWGR", "amyloid nucleation score": "inactive"}
{"substance": "VVIVLLKFR", "amyloid nucleation score": "inactive"}
{"substance": "VVLQDPGSLYEPRSHGTWFT", "amyloid nucleation score": "inactive"}
{"substance": "VVLVFLRVTRYPSQKMVSAL", "amyloid nucleation score": "inactive"}
{"substance": "VVMVLRVLLWWFRTSIMSRK", "amyloid nucleation score": "0.467 ± 0.19"}
{"substance": "VVMWAPLRYDFKSKDRAVES", "amyloid nucleation score": "inactive"}
{"substance": "VVPIVWHTGSSRVYTEGVLM", "amyloid nucleation score": "-0.65 ± 1.3"}
{"substance": "VVRYHSMYKDCYFLKRFVIL", "amyloid nucleation score": "inactive"}
{"substance": "VVRYPSMKE", "amyloid nucleation score": "inactive"}
{"substance": "VVVLYFVSHWTNRMSYSTRL", "amyloid nucleation score": "inactive"}
{"substance": "VWCPRDFFVSFVPCQ", "amyloid nucleation score": "inactive"}
{"substance": "VWIWWEDSGITCLGYMVLDF", "amyloid nucleation score": "inactive"}
{"substance": "VWLRGFQLGMDDFLWRVSGC", "amyloid nucleation score": "inactive"}
{"substance": "VWNFFSMGSFSVDC", "amyloid nucleation score": "1.28 ± 0.087"}
{"substance": "VWNMSASIKLQRMSAF", "amyloid nucleation score": "inactive"}
{"substance": "VWQRAKSSTIGPLIW", "amyloid nucleation score": "inactive"}
{"substance": "VWSTGRLLRGKSWELISNDT", "amyloid nucleation score": "inactive"}
{"substance": "VWTGWSKRGSSVA", "amyloid nucleation score": "inactive"}
{"substance": "VYAKVMSCGYGQRCVMEWFE", "amyloid nucleation score": "inactive"}
{"substance": "VYCLFVTCLKGINQWMHDKS", "amyloid nucleation score": "inactive"}
{"substance": "VYDNNYINFRSLLYMTKVSN", "amyloid nucleation score": "inactive"}
{"substance": "VYFRVFCFVSLCGVY", "amyloid nucleation score": "-0.548 ± 0.9"}
{"substance": "VYFSDVV", "amyloid nucleation score": "inactive"}
{"substance": "VYHLQLLVGVRGLNPRCAQE", "amyloid nucleation score": "inactive"}
{"substance": "VYINVNDVALKHRFLKPV", "amyloid nucleation score": "inactive"}
{"substance": "VYIVSDTRMATASFG", "amyloid nucleation score": "-0.773 ± 1.3"}
{"substance": "VYKWSNVLM", "amyloid nucleation score": "inactive"}
{"substance": "VYMNGIKVKDGLSTYWVPRE", "amyloid nucleation score": "-0.161 ± 0.69"}
{"substance": "VYNIDTRNISFMSASNRTLS", "amyloid nucleation score": "inactive"}
{"substance": "VYPCKIFCVFVVAVILFFSL", "amyloid nucleation score": "inactive"}
{"substance": "VYQQSWQVLDFVRWDTERME", "amyloid nucleation score": "inactive"}
{"substance": "VYRERPMSKEGRCIEWHNLA", "amyloid nucleation score": "inactive"}
{"substance": "VYTGHVGLFV", "amyloid nucleation score": "inactive"}
{"substance": "VYVWSG", "amyloid nucleation score": "inactive"}
{"substance": "VYWFRYRSIGTAAS", "amyloid nucleation score": "inactive"}
{"substance": "VYWRTVFNLRLVLKSYGAMR", "amyloid nucleation score": "inactive"}
{"substance": "VYYYKMTGKVYMSLYMGKLL", "amyloid nucleation score": "inactive"}
{"substance": "WACCGICSCL", "amyloid nucleation score": "2.02 ± 0.094"}
{"substance": "WACIQK", "amyloid nucleation score": "inactive"}
{"substance": "WALWICC", "amyloid nucleation score": "0.83 ± 0.13"}
{"substance": "WANNSCAIRGNNSPMGGSVA", "amyloid nucleation score": "inactive"}
{"substance": "WARIYKMLIF", "amyloid nucleation score": "inactive"}
{"substance": "WCAVMPFRSVTSNVIFDLSV", "amyloid nucleation score": "inactive"}
{"substance": "WCFHVKTSSLVLSRQWEPLS", "amyloid nucleation score": "inactive"}
{"substance": "WCSGLPGLNRWSSTIPICCY", "amyloid nucleation score": "inactive"}
{"substance": "WCTAAM", "amyloid nucleation score": "inactive"}
{"substance": "WCYDDGQA", "amyloid nucleation score": "inactive"}
{"substance": "WDFRV", "amyloid nucleation score": "inactive"}
{"substance": "WDGLHVCLKSIIGGNSGLEK", "amyloid nucleation score": "inactive"}
{"substance": "WDRSMMIAIDD", "amyloid nucleation score": "inactive"}
{"substance": "WEELDYNSDPLLAGSVTDYM", "amyloid nucleation score": "inactive"}
{"substance": "WEGMNNKIRAYAYIATLVYT", "amyloid nucleation score": "inactive"}
{"substance": "WELSRYVRGLLFEFTLCLFV", "amyloid nucleation score": "inactive"}
{"substance": "WETLLKPWQA", "amyloid nucleation score": "inactive"}
{"substance": "WFASNPIMLPSFYLIPWKRT", "amyloid nucleation score": "inactive"}
{"substance": "WFDFHA", "amyloid nucleation score": "0.9 ± 0.25"}
{"substance": "WFDNRGLSFPYVYLLREHGK", "amyloid nucleation score": "1.13 ± 0.11"}
{"substance": "WFLVVVTFGWSIGQGQVGA", "amyloid nucleation score": "-0.527 ± 1.1"}
{"substance": "WFSPRDVNYSREVFKANTLT", "amyloid nucleation score": "inactive"}
{"substance": "WGEPIVLDLSSFFDLVDRHG", "amyloid nucleation score": "inactive"}
{"substance": "WGFRRT", "amyloid nucleation score": "inactive"}
{"substance": "WGQCNELTMFFRFFLTFYIA", "amyloid nucleation score": "inactive"}
{"substance": "WGQMR", "amyloid nucleation score": "0.456 ± 0.37"}
{"substance": "WGTFIKSFQRLVKMVLLSMP", "amyloid nucleation score": "inactive"}
{"substance": "WGTRLWIVVQIGQEYVLLVR", "amyloid nucleation score": "-0.234 ± 1.1"}
{"substance": "WHAFRLMWDSNMLLLRGSVV", "amyloid nucleation score": "inactive"}
{"substance": "WHTSSQVSEGLEHAYVCKFE", "amyloid nucleation score": "inactive"}
{"substance": "WILLCIRRRMFCRGMCTINN", "amyloid nucleation score": "inactive"}
{"substance": "WINNIAPPYGQ", "amyloid nucleation score": "inactive"}
{"substance": "WIRSNATFNATGVKFSSTCH", "amyloid nucleation score": "inactive"}
{"substance": "WIWLGCPSVMSEEYMSDFHI", "amyloid nucleation score": "inactive"}
{"substance": "WKFWVAC", "amyloid nucleation score": "inactive"}
{"substance": "WKYDKGNFRALVW", "amyloid nucleation score": "inactive"}
{"substance": "WLEDTSSTDF", "amyloid nucleation score": "0.348 ± 0.22"}
{"substance": "WLGMCPLLTVVLTGIFLTPF", "amyloid nucleation score": "0.487 ± 0.2"}
{"substance": "WLHTCRGSMDW", "amyloid nucleation score": "inactive"}
{"substance": "WLKAEGWIIILSSATRPG", "amyloid nucleation score": "inactive"}
{"substance": "WLLHLIYD", "amyloid nucleation score": "inactive"}
{"substance": "WLMRARGYGNVRSPVVFGKL", "amyloid nucleation score": "inactive"}
{"substance": "WLSDNSSNDLQYHYSSSKIM", "amyloid nucleation score": "inactive"}
{"substance": "WLSYIDGSKVELIVQAW", "amyloid nucleation score": "inactive"}
{"substance": "WLWISMVYCHLKDIRIIVGN", "amyloid nucleation score": "inactive"}
{"substance": "WMFGQSIAALFSWGTVCGLV", "amyloid nucleation score": "inactive"}
{"substance": "WMMDEMLVFLTH", "amyloid nucleation score": "inactive"}
{"substance": "WMRVPRMWEGKANFISG", "amyloid nucleation score": "inactive"}
{"substance": "WNFGFGVWRFTAGG", "amyloid nucleation score": "1.33 ± 0.067"}
{"substance": "WNLYCAFSPDYRLNIWTLQI", "amyloid nucleation score": "inactive"}
{"substance": "WNNYI", "amyloid nucleation score": "inactive"}
{"substance": "WNSHQREEYTVDCYVVSVKL", "amyloid nucleation score": "-0.023 ± 0.6"}
{"substance": "WNTGETISRRLVVYNFIEMN", "amyloid nucleation score": "2.22 ± 0.056"}
{"substance": "WNVELSNLVEIMGRCACYSS", "amyloid nucleation score": "0.406 ± 0.35"}
{"substance": "WPAAQVNQIHYCVGLNNYTW", "amyloid nucleation score": "inactive"}
{"substance": "WPFRKKYGIVEIRDEMYAG", "amyloid nucleation score": "inactive"}
{"substance": "WPSYSRLQTDFRGTGFFFRG", "amyloid nucleation score": "inactive"}
{"substance": "WPYGIVTLRTWANYLGLFTL", "amyloid nucleation score": "-0.796 ± 1.1"}
{"substance": "WQCGNVLLSYAQYNAVLVAW", "amyloid nucleation score": "inactive"}
{"substance": "WRGKKSWAWPDQCLI", "amyloid nucleation score": "inactive"}
{"substance": "WRMDSRYYCYYQFLSLSYQW", "amyloid nucleation score": "inactive"}
{"substance": "WRPFWYIGFHVNVTRG", "amyloid nucleation score": "inactive"}
{"substance": "WRSKLLM", "amyloid nucleation score": "inactive"}
{"substance": "WRVPCLIVKYDV", "amyloid nucleation score": "inactive"}
{"substance": "WRVSNKIIPIIRWQWMDPCL", "amyloid nucleation score": "inactive"}
{"substance": "WSDWRLIKFNFRRSYLCLLW", "amyloid nucleation score": "inactive"}
{"substance": "WSFRNVVSVGMWYLCSDRIG", "amyloid nucleation score": "inactive"}
{"substance": "WSGHIGVLRTTSSQQWRVRR", "amyloid nucleation score": "inactive"}
{"substance": "WSMCKLKDFFTGRGVYRFIS", "amyloid nucleation score": "inactive"}
{"substance": "WSSWSRS", "amyloid nucleation score": "inactive"}
{"substance": "WSTLFVIILPTKTLGYYCFW", "amyloid nucleation score": "inactive"}
{"substance": "WSTMMNNWCLLWGCKLKPKL", "amyloid nucleation score": "inactive"}
{"substance": "WSWRDLEGQNSGKEAVILEL", "amyloid nucleation score": "inactive"}
{"substance": "WTESWYKYMNKDVSSHCKQS", "amyloid nucleation score": "inactive"}
{"substance": "WVDWFESSQTFFCALYE", "amyloid nucleation score": "inactive"}
{"substance": "WVHSVKENVSCGSRF", "amyloid nucleation score": "inactive"}
{"substance": "WVQHISLWSTMWNGPREAPM", "amyloid nucleation score": "inactive"}
{"substance": "WVSSDRHSSLVNWKHGLSQE", "amyloid nucleation score": "inactive"}
